Measured values as given in article PMC6277545, “Structural Basis for the Limited Response to Oxidative and Thiol-Conjugating Agents by Triosephosphate Isomerase From the Photosynthetic Bacteria Synechocystis” (Frontiers in Molecular Biosciences, 2018).

B1: Synechocystis sp. PCC 6803 triosephosphate isomerase (enzyme)
chain: GPHMRKIIIAGNWKMHKTQAEAQAFLQGFKPLIEDAAESREVVLCVPFTDLSGMSQQLHGGRVRLGAQNVHWEASGAYTGEISAAMLTEIGIHYVVIGHSERRQYFGETDETANLRVLAAQKAGLIPILCVGESKAQRDAGETEQVIVDQVKKGLVNVDQSNLVIAYEPIWAIGTGDTCAATEANRVIGLIREQLTNSQVTIQYGGSVNANNVDEIMAQPEIDGALVGGASLEPQSFARIVNFQP
notes: triosephosphate isomerase of Synechocystis sp; PCC 6803, GenBank BAK50928.1; Crystallised with the substrate analog 2-phosphoglycolate (2-PG); also called SyTPI; Synechocystis TPI; source: E. coli BL21 (DE3) Δtpi, purified (HisTrap, PreScission Protease, Superdex 75 gel filtration); not shown: His tag (from the HisTrap column and the modified pET19 vector), N-terminal, cleaved
B2: Arabidopsis thaliana cytosolic triosephosphate isomerase (enzyme, UniProt P48491 1-254, looked up)
chain: MARKFFVGGNWKCNGTAEEVKKIVNTLNEAQVPSQDVVEVVVSPPYVFLPLVKSTLRSDFFVAAQNCWVKKGGAFTGEVSAEMLVNLDIPWVILGHSERRAILNESSEFVGDKVAYALAQGLKVIACVGETLEEREAGSTMDVVAAQTKAIADRVTNWSNVVIAYEPVWAIGTGKVASPAQAQEVHDELRKWLAKNVSADVAATTRIIYGGSVNGGNCKELGGQADVDGFLVGGASLKPEFIDIIKAAEVKKSA
notes: cytosolic triosephosphate isomerase of Arabidopsis thaliana; also called AtcTPI; cytosolic TPI isoform of A. thaliana

Molecular target: the molecule itself
Test: SEC; Superdex 75 10/300 column, compared with MW standards (conalbumin, ovalbumin, carbonic anhydrase, Ribonuclease A); apparent molecular mass of SyTPI 54 kDa

Row | Protein | stoichiometry N
1 | B1 | 2
2 | B2 | 2
